Assay results taken from US20260008817A1, “CYCLIC PEPTIDE OR SALT THEREOF, AND USES THEREOF” (FUJIFILM Corporation, priority 2023, published 2026).
Positions of bridges follow the written chain, without caps; N, C: chain ends. Non-standard residues stand in square brackets, D forms with d. No end group written: not given here. COCH2 = acetyl group that carries the bridge; hCys = N[C@@H](CCS)C(=O)O; Orn = NCCC[C@H](N)C(=O)O; Dap = NC[C@H](N)C(=O)O

Tests used:
[1] = Alkali treatment stability of cyclic peptide (LC); assay type: physicochemical; conditions: 0.5 mol/L sodium hydroxide aqueous solution added, room temperature, 3 hours
Description: In addition, the stability of the cyclic peptide (SEQ ID NO: 335) containing a cysteine residue in the cyclized portion and the cyclic peptide (SEQ ID NO: 327) containing a homocysteine residue in the cyclized portion was compared under the following alkali treatment, which is a more severe condition.
The alkali treatment was performed by the following method. 25 μL of a 0.2 mg/mL cyclic peptide aqueous solution was prepared, 58.8 μL of a 0.5 mol/L sodium hydroxide aqueous solution was added to the aqueous solution, and the mixture was incubated at room temperature for 3 hours to obtain an aqueous solution of the cyclic peptide alkali-treated. The total area of all the peaks in LC/MS of the cyclic peptide before the alkali treatment was set to 100%, and the proportion of the total area of all the peaks in LC/MS of the aqueous solution of the cyclic peptide alkali-treated was determined to calculate the residual rate of the cyclic peptide.
The LC conditions used for the evaluation of molecular stability are the same as those in the measurement of the above-described cyclic peptide treated with a reducing agent.

[2] = target: T1, Recombinant Human FGFR1 alpha (IIIc) Fc Chimera Protein (Homo sapiens, UniProt P11362); test: SPR binding affinity of chemically synthesized cyclic peptide to immobilized FGFR; conditions: SPR binding amount at 10 nmol/L cyclic peptide, 25° C.; chemically synthesized product
T1 construct: purchased R&D systems 658-FR-050
Description: The binding affinity of the cyclic peptide to FGFR was evaluated using a surface plasmon resonance (SPR) method.
The binding affinity of the chemically synthesized cyclic peptide to FGFR was evaluated by the following procedure.
A CM5 sensor chip (Cytiva, 29149603) was set in Biacore-T200 (manufactured by Cytiva) which is a surface plasmon resonance device, and an HBS-EP buffer (Cytiva, BR100826) was added as a running buffer at a flow rate of 10 μL/min to equilibrate the flow channel. Next, 70 μL of a mixed aqueous solution of 0.2 mol/L 1-(3-dimethylaminopropyl)-3-ethylcarbodiimide (EDC) and 0.05 mol/L N-hydroxysuccinimide (NHS) was added to activate the sensor chip. Then, Recombinant Human FGFR1 alpha (IIIc) Fc Chimera Protein CF (R&D systems, 658-FR-050) prepared at 50 nmol/L in an Acetate 4.5 buffer (Cytiva, BR100350) was added thereto to perform immobilization at about 5000 RU. Thereafter, the blocking treatment was performed with an ethanolamine solution. In addition, in another flow channel of the same sensor chip, blocking treatment was performed immediately after activation without immobilizing FGFR.
A cyclic peptide diluted to 10 nmol/L using HBS-EP was added to each flow channel of the FGFR-immobilized sensor chip produced above at 25° C. for 10 minutes, then HBS-EP was allowed to flow as a running buffer for 30 minutes, and the binding of the cyclic peptide to FGFR was measured. Thereafter, a regeneration treatment of removing the bound cyclic peptide was performed by repeating the flow of a regeneration liquid in which sodium chloride powder was dissolved in Glysine 1.5 (Cytiva, BR100354) to a final concentration of 0.15 mol/L for 1 minute in each flow channel twice. The binding amount of the cyclic peptide was evaluated from the difference between the measured value of Biacore-T200 in the flow channel in which FGFR was immobilized and the measured value of Biacore-T200 in the flow channel in which FGFR was not immobilised, in a case where a 10 nmol/L cyclic peptide was allowed to flow.
The binding amount of the cyclic peptide evaluated above was normalized to the binding amount of the cyclic peptide molecules per one molecule of FGFR using the molecular weights of the cyclic peptide and FGFR, and the binding affinity to FGFR was evaluated according to the following evaluation criteria. The evaluation result preferably satisfies the evaluation criteria A, B, or C.
• A: The binding amount is 0.7 molecules of the cyclic peptide/one molecule of FGFR or more. • B: The binding amount is 0.5 molecules of the cyclic peptide/one molecule of FGFR or more and less than 0.7 molecules of cyclic peptide/one molecule of FGFR. • C: The binding amount is 0.1 molecules of cyclic peptide/one molecule of FGFR or more and less than 0.5 molecules of cyclic peptide/one molecule of FGFR. • D: The binding amount is less than 0.1 molecules of the cyclic peptide/one molecule of FGFR.

[3] = Reductive stability of cyclic peptide (DTT treatment, LC); assay type: physicochemical; conditions: residual rate after DTT treatment, room temperature, 1 hour
Description: The molecular stability of the cyclic peptide was evaluated by analyzing an aqueous solution of the cyclic peptide treated with a reducing agent by liquid chromatography (LC).
The reducing agent treatment was performed under the following conditions based on the concentration of glutathione contained in the cells. 25 μL of a 0.2 mg/mL cyclic peptide aqueous solution was prepared, 58.8 μL of a 12.6 mmol/L DTT aqueous solution was added to the aqueous solution, and the mixture was incubated at room temperature for 1 hour to obtain an aqueous solution of the cyclic peptide treated with a reducing agent. The DTT aqueous solution was used by diluting a 1 mol/L (+−)-dithiothreitol (DTT) solution (FUJIFILM Wako Pure Chemical Corporation, 044-33871) with water. The total area of all the peaks in LC/MS of the cyclic peptide before the reducing agent treatment was set to 100%, and the proportion of the total area of all the peaks in LC/MS of the aqueous solution of the cyclic peptide treated with the reducing agent was determined to calculate the residual rate of the cyclic peptide, and the molecular stability was evaluated according to the following evaluation criteria. The evaluation result preferably satisfies the evaluation criteria A, B, or C.
• A: The residual rate of cyclic peptide is 90% or more. • B: The residual rate of the cyclic peptide is 70% or more and less than 90% • C: The residual rate of the cyclic peptide is 50% or more and less than 70% • D: The residual rate of the cyclic peptide is less than 50%
The LC used for the evaluation of molecular stability was set to the following conditions. • LC device: Prominence series (pump, column oven, autosampler, detector) (manufactured by Shimadzu Corporation) • Detector: photodiode array detector (SPD-M20A), measurement wavelength of 280 nm • Column: TSKgel ODS-100V, inner diameter of 4.6 mm×length of 150 mm, particle diameter of 5 μm (manufactured by Tosoh Corporation) • Eluent A: solution containing 0.1% trifluoroacetic acid as solute, and solvent is 100% water • Eluent B: solution containing 0.1% trifluoroacetic acid as solute, and solvent is 100% acetonitrile • Flow rate: 1.0 mL/min • Injection amount: 25 μL • Gradient: 20% to 50%: Eluent B (0 to 15 minutes), 100%: Eluent B (15 minutes) • Column temperature: 40° C.

[4] = system: hMSC-Human Mesenchymal Stem Cells; test: Effect of maintaining MSC undifferentiated potency (gene expression); assay type: cell-based
Description: The effect of maintaining mesenchymal stem cell (MSC) undifferentiated potency of the cyclic peptide complex was evaluated.
MSC was prepared in the same manner as in Example 7.
The evaluation of the effect of maintaining the MSC undifferentiated potency was performed by the following method. First, a culture medium (hereinafter, referred to as a custom culture medium) in which bFGF was removed from PRIME-XV MSC Expansion XSFM (FUJIFILM Irvine Scientific, Inc., 91149) was prepared. Next, Prime-XV Human Fibronectin (FUJIFILM Irvine Scientific, Inc., 31002) was dissolved in PBS (Fujifilm Wako Pure Chemical Corporation, 164-23551), 2 μg/cm^2 of the solution was added to a 12-well plate used for proliferation, and the 12-well plate was allowed to stand at room temperature for 3 hours to coat the 12-well plate with fibronectin. Thereafter, the MSCs subjected to the subculture were peeled using Tryple Express (Thermo, 12604-013), washed once with a custom culture medium, suspended in a custom culture medium in which a cyclic peptide complex or bFGF (R&D Systems, 3718-GMP) was diluted to final concentrations of 10 nmol/L and 1 nmol/L, and seeded on a 12-well plate coated with fibronectin. In this case, conditions in which the cyclic peptide complex and bFGF were not added as a negative control were prepared. After culturing at 37° C. (5% CO2) for 2 nights, the culture medium was replaced by removing the supernatant of the culture medium and adding the same amount of a culture medium prepared to have the same composition as the removed culture medium. After further culturing at 37° C. (5% CO2) for 2 nights, RNA was extracted using an RNeasy Plus Mini Kit (Qiagen, 74136) according to the manufacturer's protocol. […] The expression level of each gene was normalized by setting the expression level of the well to which 1 nmol/L bFGF was added to 1.

[5] = 1 nmol/L bFGF versus negative control

T1 sequence (P11362 with tags, fused parts or gaps limits assumed): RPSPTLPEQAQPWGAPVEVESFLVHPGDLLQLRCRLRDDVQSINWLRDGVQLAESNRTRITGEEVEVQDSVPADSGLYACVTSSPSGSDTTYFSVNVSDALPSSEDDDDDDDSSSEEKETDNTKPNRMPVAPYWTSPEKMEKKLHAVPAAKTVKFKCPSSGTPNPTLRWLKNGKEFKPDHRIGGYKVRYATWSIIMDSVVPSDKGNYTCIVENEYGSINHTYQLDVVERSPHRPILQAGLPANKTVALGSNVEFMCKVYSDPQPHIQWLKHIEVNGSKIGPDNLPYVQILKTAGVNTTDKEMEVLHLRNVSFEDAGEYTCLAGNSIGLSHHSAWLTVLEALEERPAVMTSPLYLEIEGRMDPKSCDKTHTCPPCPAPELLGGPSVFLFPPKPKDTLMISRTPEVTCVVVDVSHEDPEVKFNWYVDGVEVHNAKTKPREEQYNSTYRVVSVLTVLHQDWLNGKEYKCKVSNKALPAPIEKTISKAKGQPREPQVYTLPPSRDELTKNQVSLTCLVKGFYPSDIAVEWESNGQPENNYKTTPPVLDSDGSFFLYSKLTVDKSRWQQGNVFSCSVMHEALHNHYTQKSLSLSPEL

Substance	Evaluation result of binding affinity to FGFR [2]	Evaluation result of reductive stability [3]	also measured
A-(C)-VWTFDRHAQEISQALH-(K(acetyl))-VKKK (ACVWTFDRHAQEISQALHK(COCH2)VKKK; thioether 2-19 (inferred)) [SEQ ID NO: 335]	–	–	residual rate of the cyclic peptide [1]: 15%
331 (AK(COCH2)VWTFDRHAQEISQALH[hCys]VKKK; thioether 2-19) [compound 331]	B (The binding amount is 0.5 molecules of the cyclic peptide/one molecule of FGFR or more and less than 0.7 molecules of cyclic peptide/one molecule of FGFR.)	A (The residual rate of cyclic peptide is 90% or more.)	–
328 (A[hCys]VWTFDRHAQEISQALH[Orn](COCH2)VKKK; thioether 2-19) [compound 328]	A (The binding amount is 0.7 molecules of the cyclic peptide/one molecule of FGFR or more.)	A (The residual rate of cyclic peptide is 90% or more.)	–
330 (A[hCys]VWTFDRHAQEISQALH[Dap](COCH2)VKKK; thioether 2-19) [compound 330]	A (The binding amount is 0.7 molecules of the cyclic peptide/one molecule of FGFR or more.)	A (The residual rate of cyclic peptide is 90% or more.)	–
334 (AXVWTFDRHAQEISQALHXVKKK; Description of Artificial Sequence: Cyclic peptide) [compound 334]	A (The binding amount is 0.7 molecules of the cyclic peptide/one molecule of FGFR or more.)	A (The residual rate of cyclic peptide is 90% or more.)	–
A-(Hcy)-VWTFDRHAQEISQALH-(K(acetyl))-VKKK (A[hCys]VWTFDRHAQEISQALHK(COCH2)VKKK; thioether 2-19) [SEQ ID NO: 327]	–	–	residual rate of the cyclic peptide [1]: 28%
bFGF: basic fibroblast growth factor (R&D Systems, 3718-GMP), growth factor used as comparison	–	–	expression level of Nanog [4, 5]: did not change substantially; expression level of Oct4 [4, 5]: did not change substantially; expression level of Sox2 ([4]; cyclic peptide complex 10 nmol/L, bFGF 1 nmol/L, normalized to 1 nmol/L bFGF = 1, FIG. 4): changed
332 (AXVWTFDRHAQEISQALHXVKKK; not fully specified; Description of Artificial Sequence: Cyclic peptide) [compound 332]	A (The binding amount is 0.7 molecules of the cyclic peptide/one molecule of FGFR or more.)	A (The residual rate of cyclic peptide is 90% or more.)	–
